From patent publication US20230128075A1

Target: HSP70 (antigen; source and nucleotide state not stated) (Homo sapiens (Human)) (UniProt P0DMV8)
Assay: biosensor, anti-human Fc capture, antigen 100 nM

Sequence of HSP70 (antigen; source and nucleotide state not stated) (Homo sapiens (Human)) (P0DMV8 whole entry): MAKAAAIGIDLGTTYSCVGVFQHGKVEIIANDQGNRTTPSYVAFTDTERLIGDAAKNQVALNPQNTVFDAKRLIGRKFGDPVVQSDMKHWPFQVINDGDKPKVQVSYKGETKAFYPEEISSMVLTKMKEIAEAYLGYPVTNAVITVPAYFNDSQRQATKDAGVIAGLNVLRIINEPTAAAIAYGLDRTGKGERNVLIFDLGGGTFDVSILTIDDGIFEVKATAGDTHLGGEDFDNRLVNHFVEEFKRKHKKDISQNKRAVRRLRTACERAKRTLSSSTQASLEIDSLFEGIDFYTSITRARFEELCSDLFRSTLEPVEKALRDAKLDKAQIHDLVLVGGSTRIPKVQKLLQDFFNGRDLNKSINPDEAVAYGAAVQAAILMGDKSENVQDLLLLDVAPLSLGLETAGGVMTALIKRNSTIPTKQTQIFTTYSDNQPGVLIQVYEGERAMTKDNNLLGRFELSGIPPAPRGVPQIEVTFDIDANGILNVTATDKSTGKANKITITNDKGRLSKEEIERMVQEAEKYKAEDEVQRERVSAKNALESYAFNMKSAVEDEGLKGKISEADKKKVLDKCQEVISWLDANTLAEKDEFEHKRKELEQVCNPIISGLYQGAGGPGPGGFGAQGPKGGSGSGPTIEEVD

Binder | % Diss [%] | X = 1495 [nM] | X = 610 [nM]
h77A-1.52 (antibody, V domains shown) VH: QIQLVQSGVEVKKPGASVKVSCKASGYIFTNYGMNWVRQAPGQGLEWMGWINTYTGEPRYADDFKGRFTFTTDTSTSTAYMELRSLRSDDTAVYFCARYDHRMDYWGQGTLVTVSS VL: EIVLTQSPDSLAVSLGERATINCKSSQSLLNSGTRKNYLAWYQQKAGQSPKLLIYWTSTRESGVPDRFSGSGSGTDFTLTIDSLQAEDVAVYYCKQSYTLYTFGGGTKVEIK | -115 | 0.0133 | –
h77A-1.54 (antibody, V domains shown) VH: QIQLVQSGAEVKKPGASVKVSCKASGYTFTKYGMNWVRQAPGQGLEWMGWINTYTGEPKYGDDFKGRFTFTTDTSTSTAYMELRSLRSDDTAVYFCARYDHRMDYWGQGTLVTVSS VL: EIVLTQSPDSLAVSLGERATINCKSSQSLLNSGTRKNYLAWYQQKAGQSPKLLIYWTSTRESGVPDRFSGSGSGTDFTLTIDSLQAEDVAVYYCKQSYTLYTFGGGTKVEIK | -41.2 | – | 0.0068

Now from value to binder:

% Diss [%] | X = 1495 [nM] | X = 610 [nM] | Binder
-37.4 | – | 0.0131 | h77A-1.79 (antibody, V domains shown) VH: QIQLVQSGAEVKKPGASVKVSCKASGYTFTKYGMNWVRQAPGQGLEWMGWINTYTGEPRYADDFKGRFTFTTDTSTSTAYMELRSLRSDDTAVYFCARYDHRMDYWGQGTLVTVSS VL: EIVLTQSPDSLAVSLGERATINCKSSQSLLNSGTRKNYLAWYQQKPGQSPKLLIYWTSTRESGVPDRFSGSGSGTDFTLTIDSLQAEDVAVYYCKQSYNLYTFGGGTKVEIK
-8.84 | – | 0.0181 | h77A-1.80 (antibody, V domains shown) VH: QIQLVQSGAEVKKPGASVKVSCKASGYTFTNYGMNWVRQAPGQGLEWMGWINTYTGEPKYADDFKGRFTFTTDTSTSTAYMELRSLRSDDTAVYFCARYDHVMDYWGQGTLVTVSS VL: EIVLTQSPDSLAVSLGERATINCKSSQSLLNSGTRKNYLSWYQQKPGQSPKLIIYWTSTRESGVPDRFSGSGSGTDFTLTIDSLQAEDVAVYYCKQSYTLYTFGGGTKVEIK
